Measured values: ChEMBL document CHEMBL1135258, “Substrate spectrum of tyrocidine thioesterase probed with randomized peptide N-acetylcysteamine thioesters” (Bioorg Med Chem Lett, 2002)

How the values were obtained:
Conditions in all cases: Brevibacillus brevis
[1] = substrate: CC(=O)NCCSC(=O)[C@H](CC(C)C)NC(=O)[C@H](CCCN)NC(=O)[C@@H](NC(=O)[C@H](Cc1ccc(O)cc1)NC(=O)[C@H](CC(N)=O)NC(=O)[C@H](CC(N)=O)NC(=O)[C@@H](Cc1ccccc1)NC(=O)[C@H](Cc1ccccc1)NC(=O)[C@@H]1CCCN1C(=O)[C@H](N)Cc1ccccc1)C(C)C; assay: (§1) Apparent kinetic constant (Km) determined for tyrocidine thioesterase amplified from Bacillus brevis (ATCC8185)
[2] = substrate: CC(=O)NCCSC(=O)[C@H](CC(C)C)NC(=O)[C@H](CCCN)NC(=O)[C@@H](NC(=O)[C@H](Cc1ccc(O)cc1)NC(=O)[C@H](CCC(N)=O)NC(=O)[C@H](CC(N)=O)NC(=O)[C@H](CC(N)=O)NC(=O)[C@H](Cc1ccccc1)NC(=O)[C@@H]1CCCN1C(=O)[C@H](N)Cc1ccccc1)C(C)C; assay: as §1
[3] = substrate: CC(=O)NCCSC(=O)[C@H](CC(C)C)NC(=O)[C@H](CCCN)NC(=O)[C@@H](NC(=O)[C@H](Cc1ccc(O)cc1)NC(=O)[C@H](CCC(N)=O)NC(=O)[C@H](CC(N)=O)NC(=O)CNC(=O)[C@H](Cc1ccccc1)NC(=O)[C@@H]1CCCN1C(=O)[C@H](N)Cc1ccccc1)C(C)C; assay: as §1
[4] = substrate: CC(=O)NCCSC(=O)[C@H](CC(C)C)NC(=O)[C@H](CCCN)NC(=O)[C@@H](NC(=O)[C@H](Cc1ccc(O)cc1)NC(=O)[C@H](CCC(N)=O)NC(=O)[C@H](CC(N)=O)NC(=O)[C@H](Cc1ccc(O)cc1)NC(=O)[C@H](Cc1ccccc1)NC(=O)[C@@H]1CCCN1C(=O)[C@H](N)Cc1ccccc1)C(C)C; assay: as §1
[5] = substrate: CC(=O)NCCSC(=O)[C@H](CC(C)C)NC(=O)[C@H](CCCN)NC(=O)[C@@H](NC(=O)[C@H](Cc1ccc(O)cc1)NC(=O)[C@H](CCC(N)=O)NC(=O)[C@H](CC(N)=O)NC(=O)[C@@H](Cc1ccccc1)NC(=O)[C@H](CC(N)=O)NC(=O)[C@@H]1CCCN1C(=O)[C@H](N)Cc1ccccc1)C(C)C; assay: as §1
[6] = substrate: CC(=O)NCCSC(=O)[C@H](CC(C)C)NC(=O)[C@H](CCCN)NC(=O)[C@H](CC(N)=O)NC(=O)[C@H](Cc1ccc(O)cc1)NC(=O)[C@H](CCC(N)=O)NC(=O)[C@H](CC(N)=O)NC(=O)[C@@H](Cc1ccccc1)NC(=O)[C@H](Cc1ccccc1)NC(=O)[C@@H]1CCCN1C(=O)[C@H](N)Cc1ccccc1; assay: as §1
[7] = substrate: CC(=O)NCCSC(=O)[C@H](CC(C)C)NC(=O)[C@H](CCCN)NC(=O)[C@@H](NC(=O)[C@H](Cc1ccc(O)cc1)NC(=O)[C@H](CCC(N)=O)NC(=O)[C@H](CC(N)=O)NC(=O)[C@@H](NC(=O)[C@H](Cc1ccccc1)NC(=O)[C@@H]1CCCN1C(=O)[C@H](N)Cc1ccccc1)[C@@H](C)O)C(C)C; assay: as §1
[8] = substrate: CC(=O)NCCSC(=O)[C@H](CC(C)C)NC(=O)[C@H](CCCN)NC(=O)[C@@H](NC(=O)[C@H](Cc1ccc(O)cc1)NC(=O)[C@H](CCC(N)=O)NC(=O)[C@H](CC(N)=O)NC(=O)[C@H](CCC(N)=O)NC(=O)[C@H](Cc1ccccc1)NC(=O)[C@@H]1CCCN1C(=O)[C@H](N)Cc1ccccc1)C(C)C; assay: as §1
[9] = substrate: CC(=O)NCCSC(=O)[C@H](CC(C)C)NC(=O)[C@H](CCCN)NC(=O)[C@@H](NC(=O)[C@H](Cc1ccc(O)cc1)NC(=O)[C@H](CCC(N)=O)NC(=O)[C@H](CC(N)=O)NC(=O)[C@H](CCCCN)NC(=O)[C@H](Cc1ccccc1)NC(=O)[C@@H]1CCCN1C(=O)[C@H](N)Cc1ccccc1)C(C)C; assay: as §1
[10] = substrate: CC[C@H](C)[C@H](NC(=O)[C@H](Cc1ccccc1)NC(=O)[C@@H]1CCCN1C(=O)[C@H](N)Cc1ccccc1)C(=O)N[C@@H](CC(N)=O)C(=O)N[C@@H](CCC(N)=O)C(=O)N[C@@H](Cc1ccc(O)cc1)C(=O)N[C@H](C(=O)N[C@@H](CCCN)C(=O)N[C@@H](CC(C)C)C(=O)SCCNC(C)=O)C(C)C; assay: as §1
[11] = substrate: CC(=O)NCCSC(=O)[C@H](CC(C)C)NC(=O)[C@H](CCCN)NC(=O)[C@@H](NC(=O)[C@H](CC(N)=O)NC(=O)[C@H](CCC(N)=O)NC(=O)[C@H](CC(N)=O)NC(=O)[C@@H](Cc1ccccc1)NC(=O)[C@H](Cc1ccccc1)NC(=O)[C@@H]1CCCN1C(=O)[C@H](N)Cc1ccccc1)C(C)C; assay: as §1
[12] = substrate: CC(=O)NCCSC(=O)[C@H](CC(C)C)NC(=O)[C@H](CCCN)NC(=O)[C@@H](NC(=O)[C@H](Cc1ccc(O)cc1)NC(=O)[C@H](CCC(N)=O)NC(=O)[C@H](CC(N)=O)NC(=O)[C@H](CS)NC(=O)[C@H](Cc1ccccc1)NC(=O)[C@@H]1CCCN1C(=O)[C@H](N)Cc1ccccc1)C(C)C; assay: as §1
[13] = substrate: CC(=O)NCCSC(=O)[C@H](CC(C)C)NC(=O)[C@H](CCCN)NC(=O)[C@@H](NC(=O)[C@H](Cc1ccc(O)cc1)NC(=O)[C@H](CCC(N)=O)NC(=O)[C@H](CC(N)=O)NC(=O)[C@@H](Cc1ccccc1)NC(=O)[C@H](Cc1ccccc1)NC(=O)[C@H](C)NC(=O)[C@H](N)Cc1ccccc1)C(C)C; assay: as §1
[14] = substrate: CC(=O)NCCSC(=O)[C@H](CC(C)C)NC(=O)[C@H](CCCN)NC(=O)[C@@H](NC(=O)[C@H](Cc1ccc(O)cc1)NC(=O)[C@H](CCC(N)=O)NC(=O)[C@H](CC(N)=O)NC(=O)[C@H](C)NC(=O)[C@H](Cc1ccccc1)NC(=O)[C@@H]1CCCN1C(=O)[C@H](N)Cc1ccccc1)C(C)C; assay: as §1
[15] = substrate: CC(=O)NCCSC(=O)[C@H](CC(C)C)NC(=O)[C@H](CCCN)NC(=O)[C@@H](NC(=O)[C@H](Cc1ccc(O)cc1)NC(=O)[C@H](CCC(N)=O)NC(=O)[C@H](CC(N)=O)NC(=O)[C@@H](Cc1ccccc1)NC(=O)[C@H](Cc1ccccc1)NC(=O)[C@H](CC(=O)O)NC(=O)[C@H](N)Cc1ccccc1)C(C)C; assay: as §1

B1: Thioesterase GrsT homolog tycF (Brevibacillus brevis), O30412 (protein)
chain: MKLFCFPYAGGLPGIYYSWKSRLPPTFLEIDAFEVRPHIPQPNRDVFLPTSFYELLEDVCDRITPALTETPFAFFGHSMGGLVAFELTRKLMQKGAPLPQHLFLSASRAPHAYGKLAKTYNLPHDEFVEALRKLGGTPDDVLENQELLELFLPILRADFQAVQTYEMNPDLPRQVPVNMTVLYGTEDTIALEDIWAWRDYCQGACQFFPVSGGHFFIHHQTSPILEIIQNVLKEEKTVAIHSSF
With B1 as the protein, how does the Km [1] read?
The Km was 112 µM.

And the Km [2]?
The Km was 19 µM.

What about the Km [3] of the same protein?
Its Km is 22 µM.

And the Km [4]?
The Km was 65 µM.

And the Km [5]?
The Km was 172 µM.

And the Km [6]?
The Km was 55 µM.

And the Km [7]?
Its Km is 31 µM.

And the Km [8]?
Its Km is 16 µM.

And the Km [9]?
Its Km is 15 µM.

And the Km [10]?
The Km was 32 µM.

What about the Km [11] of the same protein?
Its Km is 7.6 µM.

What about the Km [12] of the same protein?
The Km was 27 µM.

What about the Km [13] of the same protein?
Its Km is 31 µM.

What about the Km [14] of the same protein?
The Km was 19 µM.

And the Km [15]?
Its Km is 96 µM.
